Key:
gp41-longNC = test: BLI; conditions: pH 4.0; second pH 7.0; 0.1% DPC
gp41-longNC (HIV-1) = gp41-longNC (HIV-1) (UniProt P04578); test: AUC

2F5
fold difference in KD at pHs 4 and 7 (gp41-longNC): 4,000-fold

4E10
fold difference (gp41-longNC): 30-fold

gp41-longNC (from UniProt P04578) (domain or fragment)
stoichiometry N (gp41-longNC (HIV-1)): 3

Reference: PMC4348151
